Consider five molecules from patent publication US20260209387A1, “SINGLE-DOMAIN ANTIBODY FOR INHIBITION OF NEUTROPHIL ELASTASE ACTIVITY” (UNIVERSITE DE LIEGE, priority 2023, published 2026).

Peptide text beside a SMILES is read from it. * marks the point of attachment. MeOSuc = COC(=O)CCC(=O)*; CH2Cl = ClC*

The target in one data set is T1, hNE (Homo sapiens, UniProt P08246).
T1 construct: purchased Elastin Products Company (EPC)
T1 sequence (P08246 30-247): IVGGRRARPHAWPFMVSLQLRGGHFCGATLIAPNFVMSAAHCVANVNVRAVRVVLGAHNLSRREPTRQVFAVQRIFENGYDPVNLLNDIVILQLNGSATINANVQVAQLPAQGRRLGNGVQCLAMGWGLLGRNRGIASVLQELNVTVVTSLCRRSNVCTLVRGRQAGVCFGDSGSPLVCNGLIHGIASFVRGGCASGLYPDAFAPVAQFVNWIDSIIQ
As to the kind of experiment: hNE inhibition, hydrolysis of elastin (Elastin-CongoRed). The class given is biochemical. Here is the method:
1.6.2. Inhibition of the hydrolysis of elastin, a natural substrate of hNE. […] The samples were incubated for 16 hours at 37° C. with orbital shaking (900 rpm). The samples were then centrifuged at 90′000 g for 30 minutes at 4° C. to separate the insoluble Elastin from the digested and soluble molecule fragments. The soluble fraction was transferred into a 384-wells clear plate and the absorbance of Congo-red was measured at 495 nm in a SpectraMax M2e Microplates Reader (Molecular Devices, California, USA). The absorbance of the samples at different inhibitor: hNE molar ratios was compared to that measured in the absence of inhibitor, to determine the residual hNE activity. A sample of Elastin-Congo red without elastase was used as blank.

Data set [1] deals with hNE-induced alveolar-capillary damage. In words: hNE-induced acute lung injury mouse model. In kind it is in vivo, mice. Particulars: nasal instillation 15 min prior to hNE 25 μg; molar ratio Nb/HNE 4/1. As to the method: The in vivo efficacy of NbE201 was determined using a mouse model of acute lung injury induced by nasal instillation of HNE (L agente et al., 2009, American Thoracic Society International Conference Abstracts. (American Thoracic Society), A5668. doi: 10.1164/ajrccm-conference.2009.179.1_MeetingAbstracts.A5668). […]
It was determined with the hemoglobin assay kit (Sigma) and performed according to the manufacturer's instructions. […] A measurement of the optical density at 400 nm allowed the quantification of this stable complex. […]
Histological sections of the lung were digitized using a panoramic scan 2 (3[…]). […] This semi-automated analysis made it possible to quantify the damaged alveolar surface. […] The percentage of injured surface was determined by the ratio: % injured area=(injured area/alveolar area)×100

The target of data set [2] is T2, human neutrophil elastase (human, UniProt P08246 30-247, glycans (NAG-NAG-FUC) at N109 and N204, chymotrypsinogen numbering, seen in the crystal).
T2 construct: Purified hNE bought from Elastin Products Company; In the crystal, density is defined for I1 to Q218; also called hNE; HNE
T2 sequence: T1 sequence (P08246 30-247)
As to the kind of experiment: capture of hNE on streptavidin magnetic beads via biotinylated NbE34 (phage panning).
Procedure: The recovery of the beads after each step was carried out on a magnetic stand for 1.5 ml Eppendorf tubes for two minutes. All the incubation steps took place at room temperature and in a shaker with vertical rotation. Washing steps were carried out with 500 μl phosphate-buffered saline solution with a detergent solution of 0.01% (PBST, PBS with 0.01%, % v/v, Tween 20). First, 0.04 mg of beads were functionalized with 4 μg of chemically biotinylated NbE34 in 1 ml of PBS. After 5 washings, the beads were incubated with 5 μg of hNE in 500 μL of PBS. A negative control tube with magnetic beads functionalized with NbE34 but without hNE was also prepared. Then, the beads in each tube were incubated in 500 μl of blocking buffer. The blocking buffer was casein 0.1% (% w/v), bovine serum albumin 0.1% (% w/v) or protein free-blocking buffer (ThermoFisher Scientific, United States) in rounds 1, 2 and 3, respectively. In the next step, 2×10¹¹ phages from the library were incubated in the positive and the negative tubes and incubated for 1 hour. The beads were washed at least 10 times with PBST (PBS containing 0.05%, % v/v, Tween 20), previous to the elution of phages with 200 μl of triethanolamine (TEA) pH 11 for 10 minutes and neutralization with 200 μl of trisaminomethane hydrochloric acid (Tris-HCl) 1M pH8. […]

Data set [3] in a line: Physical stress (nebulization, agitation, freeze/thaw): concentration by A280 nm before/after centrifugation. Particulars: for Initial concentration percentage after centrifugation: 10 000 g 10 min. In kind it is physicochemical. Here is the method:
A 0.25 mg/ml solution of NbE201, NbE201-PEG10 or NbE201-PEG40 was prepared and divided in order to apply the following conditions: control, 1 or 4 h of agitation with a magnetic bar, nebulization, 5 or 10 freeze/thaw cycles.
2.3.1 Stability towards agitation. 100 μl of a 0.25 mg/ml ISVDs solution were agitated in a 1 ml glass vial with a 2×5 mm magnetic bar (VWR, Radnor, USA) at 200 rpm during 1 or 4 hours.
2.3.2 Stability towards Nebulization. 300 μl of a 0.25 mg/ml ISVDs solution were nebulized with a MeSH nebulizer (InnoSpire Go, Phillips, Amsterdam, The Netherlands).
2.3.3 Stability towards freezing/thawing. 100 μl of a 0.25 mg/ml ISVDs solution underwent 5 or 10 freeze/thaw (F/T) cycles. Freezing was performed in a −20° C. freezer and thawing was performed at RT.
2.3.4 Concentration measurements. Concentrations and UV spectra were measured by spectrophotometry (NanoDrop 2000/2000c spectrophotometer, ThermoFisher). Concentrations were determined based on the absorbance at 280 nm. NbE201 and NbE201-Cter mass extinction coefficients applied to the measurements were 1.888 and 1.716 (mg/mL)^−1 cm^−1 respectively. Regarding the ISVDs exposed to physical stresses, the concentration was read before and after centrifugation at 10 000 g at 4° C. for 10 min.

The nature of data set [4]: Aggregates detection by Nanoparticle Tracking Analysis. The class given is physicochemical. The conditions noted are these: 0.25 mg/ml, after nebulization. Here is the method: 2.3.5 Aggregates Detection. Protein aggregates were visualized by Nanoparticle Tracking Analysis (NTA) (ZetaView, 220 Twin Laser, Particle Metrix, Ammersee, Germany), a technique used for measuring single particle size and concentration. NbE201, NbE201-PEG10 and NbE201-PEG40 solutions (0.25 mg/ml) were analysed before and after nebulization. 11 positions were analysed for which following parameters were used: • Laser wavelength: 488 nm • Scatter, no fluorescence • Sensitivity: 80 • Shutter: 100

The target in data set [5] is T3, proteolytic (elastase) activity of cystic fibrosis patient sputa (Homo sapiens, UniProt P08246).
T3 construct: Sputa from patients with cystic fibrosis, COPD or ciliary diskenisia above 18 years old were collected; from tissue; host or cells: expectorated sputum of patients with cystic fibrosis, COPD or ciliary dyskinesia
T3 sequence (P08246 30-267): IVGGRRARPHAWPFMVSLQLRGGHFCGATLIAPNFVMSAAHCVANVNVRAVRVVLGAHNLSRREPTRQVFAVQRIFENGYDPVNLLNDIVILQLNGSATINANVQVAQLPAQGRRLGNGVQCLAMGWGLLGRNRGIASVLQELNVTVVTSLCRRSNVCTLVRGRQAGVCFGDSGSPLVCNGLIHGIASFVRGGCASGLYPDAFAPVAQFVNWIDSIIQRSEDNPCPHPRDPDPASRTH
As to the kind of experiment: Sputum proteolytic activity inhibition, cystic fibrosis sputa. In kind it is biochemical. Particulars: exposure time 0. Here is the method: 2.2.2 Evaluation of the proteolytic activity inhibition in CF, COPD and ciliary diskenisia sputa. […] Sputa collection procedures were evaluated by the local ethic committee (comité d'Ethique Hospitalo-Facultaire des Cliniques universitaires Saint-Luc) and approved under the Belgian registration number B4032021000071.
Sputum proteolytic activity was assessed by following with a spectrophotometer the absorbance at 410 nm of suc-Ala-Ala-Pro-Val-pNA degradation, the chromogenic hNE substrate. Sputa were classified as mucoid, muco-purulent or purulent (Serisier et al., 2009, Respir Res, 10 (1): 63. doi: 10.1186/1465-9921-10-6). According to the experiment, 10 to 20 mg of sputum were weighted in a 96-well plate. ISVDs were then added to the sputum samples and pre-incubated at 37° C. during different periods of time. The hNE substrate was diluted to a concentration of 1 mM in a tris buffer (0.1M tris, 0.5M NaCl, 0.01% Sodium azide (NaN3), pH 7.5) and 50 μl of this solution were added to the wells. The substrate degradation was followed during 50 min. […] Slopes were then calculated from the regression line drawn from the absorbance measurements and were expressed as a percentage of the sputum proteolytic activity without ISVDs.

Turning to `COC(=O)CCC(=O)N[C@@H](C)C(=O)N[C@@H](C)C(=O)N1CCC[C@H]1C(=O)N[C@H](C(=O)CCl)C(C)C` [EI3, methyl 4-[[(2S)-1-[[(2S)-1-[(2S)-2-[[(3S)-1-chloro-4-methyl-2-oxopentan-3-yl]carbamoyl]pyrrolidin-1-yl]-1-oxopropan-2-yl]amino]-1-oxopropan-2-yl]amino]-4-oxobutanoate, reference compound] (MeOSuc-AAPV-CH2Cl), the “inhibition of hNE activity, elastin hydrolysis” value at hNE ([inhibitor]:[hNE] ratio 15) stood at 95%.

“AAT: endogenous glycoprotein, covalent natural inhibitor of neutrophil elastase”: the “protection against hNE-induced alveolar-capillary damage” value in data set [1] is reported as “protects the lungs from developing alveolar-capillary damage”.

Regarding `CC(C)(C)C(=O)Oc1ccc(S(=O)(=O)Nc2ccccc2C(=O)NCC(=O)O)cc1` [Sivelestat, reference compound], at hNE ([inhibitor]:[hNE] = 50), the “inhibition of hNE activity, elastin hydrolysis” value was found to be 40%.

B1: NbE34 (VHH)
VHH: QVQLQESGGGLVQPGGSLRLSCAASGFTLDYHAIGWFRQAPGKEREGVSCISSSGGRADYADSVKGRFTISRDNAKNTVYLQMNSLKPEDTAVYYCATRCAVVGGTYYYGMDYWGKGTQVTVSS
modifications: chemically biotinylated (sites not given)
notes: It was used to capture hNE on streptavidin beads for the panning; also called biotinylated capture ISVD NbE34
Consider B1, for which, in data set [2], the binding result is reported as “binds”.

B2: NbE201-PEG10: NbE201-Cter (linker SPSTPPTPSPSTPP + C-terminal cysteine) conjugated to linear 10 kDa PEG-maleimide (conjugate)
VHH: QVQLQESGGGLVQAGGSLRLSCVVPGRTISLYRMGWFRQAPGKEREFVAGINWSGDMTDYVDSVKGRFTISRDNAKNTVYLEMNSLKPEDTAIYYCTADPKLLPLADSSYGYWGQGTQVTVSSSPSTPPTPSPSTPPC
For the molecule B2, the “Initial concentration percentage before centrifugation” value is 98 ± 1% in data set [3] (Agitation (1 h)); 100 ± 1% in data set [3] (Agitation (4 h)); 100 ± 0% in data set [3] (Control); 99 ± 1% in data set [3] (F/T 5x); 98 ± 2% in data set [3] (F/T 10x); 85 ± 2% (***) in data set [3] (Nebulization). The “Initial concentration percentage after centrifugation” value in data set [3] (Agitation (1 h)) came to 97 ± 2%; in data set [3] (Agitation (4 h)), 93 ± 2%; in data set [3] (Control) it was 94 ± 2%; in data set [3] (F/T 5x), 99 ± 1%; in data set [3] (F/T 10x), 98 ± 1%; in data set [3] (Nebulization), 85 ± 3%. In data set [4], the “average counted particles per frame (NTA)” value is given as “far below that threshold”. The “sputum proteolytic activity inhibition at time 0, compared with NbE201” value in data set [5] is on record as “No significant difference”.
